Test results from patent publication US20210395344A1.
Numbering of substitutions follows the chain as printed.

B1: SARS-CoV-2 variant 1-31 (antibody, V domains shown)
VH: EVQLLESGGGLVQPGGSLRLSCAASGFTFSSYAMNWVRQAPGKGLEWVSAISGSGGSTFYADSVKGRFTISRDNSKNTLYLQMNSLRAEDTAVYYCTRPPYGDYGDYWGQGTLVTVSS
VL: QSALTQPASVSGSPGQSITISCTGTSSDVGKYNLVSWYQQHPGKAPKLMIYEGSQRPSGVSNRFSGSKSGNTASLTISGLQAEDEADYYCCSYAGSRTPVVFGGGTKLTVL
B2: SARS-CoV-2 variant 1-4 (antibody, V domains shown)
VH: EVQLLESGGGLVQPGGSLRLSCAASGFTFSSQAMSWVRQAPGKGLEWVSAISGSGGGTYYADSVKGRFTISRDNSKNTLYLQMNSLRAEDTAVYYCAKDRRFGEFDPWGQGTLVTVSS
VL: B1 VL with K31T, R97S, T98S, P99F
B3: SARS-CoV-2 variant 1-32 (antibody, V domains shown)
VH: B1 VH with N35Y
VL: QSALTQPASVSGSPGQSITISCTGTSSDVGGYNLVSWYQQHPGKAPKLMIYEGNKRPSGVSNRFSGSKSGNTASLTISGLQAEDEADYYCCSYAGSSTFPVVFGGGTKLTVL
B4: SARS-CoV-2 variant 1-5 (antibody, V domains shown)
VH: B2 VH
VL: B1 VL with D28G, K31S, G53A, Q55K, R97Y, P99F, V100A
B5: SARS-CoV-2 variant 1-28 (antibody, V domains shown)
VH: EVQLLESGGGLVQPGGSLRLSCAASGFTFSSYGMSWVRQAPGKGLEWVSAISGSGGGTYYADSVKGRFTISRDNSKNTLYLQMNSLRAEDTAVYYCASSSSWQFDYWGQGTLVTVSS
VL: B1 VL with D28G, K31S, R97S, P99H, V100Y
B6: SARS-CoV-2 variant 1-30 (antibody, V domains shown)
VH: B1 VH with N35T
VL: B1 VL with S27R, K31S, S54T, Q55K
B7: SARS-CoV-2 variant 1-3 (antibody, V domains shown)
VH: B2 VH
VL: B1 VL with T25I, K31S, S54T, Q55K, R97S, T98S, P99F

target: COVID S1 RBD Fc fusion (Antigen 1) (SARS-CoV-2), P0DTC2; test: phage ELISA; settings: remark: other sources report otherwise

| Binder | specificity ELISA, fold over background (fold over background) | specificity ELISA, percent binding relative to Acro S1 [%] |
| --- | --- | --- |
| B1 | 1.3 | 4.3 |
| B2 | 1.4 | 138 |
| B3 | 1.5 | 13.1 |
| B4 | 1.6 | 108 |
| B5 | 1.1 | 113 |
| B6 | 1.7 | 9.8 |
| B7 | 1.8 | 109 |
